Measurements reported in PMC4622731 (mAbs, 2015).
Values belong to the molecule of their own block, whether it stands above or below them.

Legend:
[1] = target: biotinylated human IL-1α (Homo sapiens) (UniProt P01583); assay: ELISA; mAb or DVD-Ig (2 μg/mL) captured by anti-human Fc antibody coated on the plate; biotinylated human IL-1α or IL-1β titrated 1000 ng/mL to 0.597 pg/mL, 1 hour at 25°C; peroxidase-labeled streptavidin
[2] = target: biotinylated human IL-1β (Homo sapiens) (UniProt P01584); assay: as above
human IL-1α (human) [3] = target: human IL-1α (human) (UniProt P01583); assay: SPR; Biacore 3000; mAb or DVD-Ig captured by goat anti-human IgG Fc on a CM5 chip; IL-1 10-200 nM flowed at 25 μL/min; HBS-EP (10 mM HEPES pH 7.4, 150 mM NaCl, 3 mM EDTA, 0.005% P20), 25°C; 1:1 Langmuir global fit, KD = koff/kon
human IL-1β (human) [4] = target: human IL-1β (human) (UniProt P01584); assay: as above
[5] = target: cynomolgus IL-1β (Macaca fascicularis) (UniProt P79182); assay: as above
[6] = target: cynomolgus IL-1α (Macaca fascicularis) (UniProt P79340); assay: as above
human IL-1α (human) [7] = target: human IL-1α (human) (UniProt P01583)
human IL-1β (human) [8] = target: human IL-1β (human) (UniProt P01584)
[9] = target: cynomolgus IL-1β (Macaca fascicularis) (UniProt P79182)
[10] = target: cynomolgus IL-1α (Macaca fascicularis) (UniProt P79340)
human IL-1α (human) [11] = target: human IL-1α (human) (UniProt P01583); remark: listed apart in the source
human IL-1β (human) [12] = target: human IL-1β (human) (UniProt P01584); remark: listed apart in the source
[13] = target: cynomolgus IL-1β (Macaca fascicularis) (UniProt P79182); remark: listed apart in the source
[14] = target: cynomolgus IL-1α (Macaca fascicularis) (UniProt P79340); remark: listed apart in the source
human IL-1β [15] = target: T1, human IL-1β (Homo sapiens, UniProt P01584); assay: cell-based or functional assay
human IL-1β [16] = target: T1, human IL-1β; assay: SPR; Biacore 3000; mAb or DVD-Ig captured by goat anti-human IgG Fc on a CM5 chip; IL-1 10-200 nM flowed at 25 μL/min; HBS-EP (10 mM HEPES pH 7.4, 150 mM NaCl, 3 mM EDTA, 0.005% P20), 25°C; 1:1 Langmuir global fit, KD = koff/kon; conditions: both partners purified

Chain of cynomolgus IL-1α (Macaca fascicularis) (P79340 whole entry): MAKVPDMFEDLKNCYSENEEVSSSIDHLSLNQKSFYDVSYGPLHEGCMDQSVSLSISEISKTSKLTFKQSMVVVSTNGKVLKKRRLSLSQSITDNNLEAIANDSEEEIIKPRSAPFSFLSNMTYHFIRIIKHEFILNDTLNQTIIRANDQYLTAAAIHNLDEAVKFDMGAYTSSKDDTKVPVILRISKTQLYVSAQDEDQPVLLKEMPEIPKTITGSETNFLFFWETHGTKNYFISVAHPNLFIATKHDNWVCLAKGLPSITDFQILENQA
Chain of human IL-1α (human) (P01583 whole entry): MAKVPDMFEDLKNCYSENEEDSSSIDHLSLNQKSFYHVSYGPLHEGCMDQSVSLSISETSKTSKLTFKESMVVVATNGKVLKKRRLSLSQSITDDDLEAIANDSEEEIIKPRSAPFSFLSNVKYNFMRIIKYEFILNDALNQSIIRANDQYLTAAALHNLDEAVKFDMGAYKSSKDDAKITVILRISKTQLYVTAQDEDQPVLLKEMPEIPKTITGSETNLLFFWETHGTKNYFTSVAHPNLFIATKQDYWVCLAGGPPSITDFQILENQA
Chain of cynomolgus IL-1β (Macaca fascicularis) (P79182 whole entry): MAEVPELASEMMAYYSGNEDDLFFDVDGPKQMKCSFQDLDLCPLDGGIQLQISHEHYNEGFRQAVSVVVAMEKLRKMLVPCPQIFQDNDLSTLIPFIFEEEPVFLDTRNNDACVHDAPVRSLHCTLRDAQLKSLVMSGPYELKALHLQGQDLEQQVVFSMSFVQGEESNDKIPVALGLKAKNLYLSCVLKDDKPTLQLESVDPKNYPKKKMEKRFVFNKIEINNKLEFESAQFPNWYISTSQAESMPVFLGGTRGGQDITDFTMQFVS
Chain of human IL-1β (human) (P01584 whole entry): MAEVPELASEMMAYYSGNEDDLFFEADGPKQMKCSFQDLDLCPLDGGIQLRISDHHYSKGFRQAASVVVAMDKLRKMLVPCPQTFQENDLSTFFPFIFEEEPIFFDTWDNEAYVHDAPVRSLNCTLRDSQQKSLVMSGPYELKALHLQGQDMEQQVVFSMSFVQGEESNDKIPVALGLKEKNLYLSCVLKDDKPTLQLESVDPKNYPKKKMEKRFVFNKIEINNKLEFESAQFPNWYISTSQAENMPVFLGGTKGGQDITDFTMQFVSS
T1 sequence (P01584 whole entry): as above

EC50 [1]: 0.0064 nM | EC50 [2]: 0.0075 nM | Kd (human IL-1α (human) [3]): 0.0076 nM | Kd (human IL-1β (human) [4]): 0.021 nM | Kd [5]: 0.0153 nM | Kd [6]: 0.411 nM | Neutralization potency IC50, MRC-5 cell bioassay: IL-8 release on 3 pM human IL-1α (human IL-1α (human) [7]): 16.2 pM | Neutralization potency IC50, MRC-5 cell bioassay: IL-8 release on 3 pM human IL-1β (human IL-1β (human) [8]): 16 pM | Neutralization potency IC50, MRC-5 cell bioassay: IL-8 release on 3 pM cynomolgus IL-1β [9]: 8.4 pM | Neutralization potency IC50, MRC-5 cell bioassay: IL-8 release on 3 pM cynomolgus IL-1α [10]: 955 pM | ED50, Average: dose of ABT-981 inhibiting mouse IL-6 induced by 30 ng human IL-1α in C57/BL6 mice (human IL-1α (human) [11]): 0.005 mg/kg | ED50, Expt #1: dose of ABT-981 inhibiting mouse IL-6 induced by 30 ng human IL-1α in C57/BL6 mice (human IL-1α (human) [11]): 0.007 mg/kg | ED50, Expt #2: dose of ABT-981 inhibiting mouse IL-6 induced by 30 ng human IL-1α in C57/BL6 mice (human IL-1α (human) [11]): 0.002 mg/kg | ED80, Average: dose of ABT-981 inhibiting mouse IL-6 induced by 30 ng human IL-1α in C57/BL6 mice (human IL-1α (human) [11]): 0.104 mg/kg | ED80, Expt #1: dose of ABT-981 inhibiting mouse IL-6 induced by 30 ng human IL-1α in C57/BL6 mice (human IL-1α (human) [11]): 0.17 mg/kg | ED80, Expt #2: dose of ABT-981 inhibiting mouse IL-6 induced by 30 ng human IL-1α in C57/BL6 mice (human IL-1α (human) [11]): 0.04 mg/kg | ED50, Average: dose of ABT-981 inhibiting mouse IL-6 induced by 30 ng human IL-1β in C57/BL6 mice (human IL-1β (human) [12]): 0.016 mg/kg | ED50, Expt #1: dose of ABT-981 inhibiting mouse IL-6 induced by 30 ng human IL-1β in C57/BL6 mice (human IL-1β (human) [12]): 0.02 mg/kg | ED50, Expt #2: dose of ABT-981 inhibiting mouse IL-6 induced by 30 ng human IL-1β in C57/BL6 mice (human IL-1β (human) [12]): 0.012 mg/kg | ED80, Average: dose of ABT-981 inhibiting mouse IL-6 induced by 30 ng human IL-1β in C57/BL6 mice (human IL-1β (human) [12]): 0.28 mg/kg | ED80, Expt #1: dose of ABT-981 inhibiting mouse IL-6 induced by 30 ng human IL-1β in C57/BL6 mice (human IL-1β (human) [12]): 0.27 mg/kg | ED80, Expt #2: dose of ABT-981 inhibiting mouse IL-6 induced by 30 ng human IL-1β in C57/BL6 mice (human IL-1β (human) [12]): 0.32 mg/kg | ED50, Average: dose of ABT-981 inhibiting mouse IL-6 induced by 30 ng cynomolgus IL-1β in C57/BL6 mice [13]: 0.004 mg/kg | ED50, Expt #1: dose of ABT-981 inhibiting mouse IL-6 induced by 30 ng cynomolgus IL-1β in C57/BL6 mice [13]: 0.002 mg/kg | ED50, Expt #2: dose of ABT-981 inhibiting mouse IL-6 induced by 30 ng cynomolgus IL-1β in C57/BL6 mice [13]: 0.006 mg/kg | ED80, Average: dose of ABT-981 inhibiting mouse IL-6 induced by 30 ng cynomolgus IL-1β in C57/BL6 mice [13]: 0.094 mg/kg | ED80, Expt #1: dose of ABT-981 inhibiting mouse IL-6 induced by 30 ng cynomolgus IL-1β in C57/BL6 mice [13]: 0.098 mg/kg | ED80, Expt #2: dose of ABT-981 inhibiting mouse IL-6 induced by 30 ng cynomolgus IL-1β in C57/BL6 mice [13]: 0.11 mg/kg | ED50, Average: dose of ABT-981 inhibiting mouse IL-6 induced by 30 ng cynomolgus IL-1α in C57/BL6 mice [14]: 6.5 mg/kg | ED50, Expt #1: dose of ABT-981 inhibiting mouse IL-6 induced by 30 ng cynomolgus IL-1α in C57/BL6 mice [14]: 5.2 mg/kg | ED50, Expt #2: dose of ABT-981 inhibiting mouse IL-6 induced by 30 ng cynomolgus IL-1α in C57/BL6 mice [14]: 7.7 mg/kg | ED80, Average: dose of ABT-981 inhibiting mouse IL-6 induced by 30 ng cynomolgus IL-1α in C57/BL6 mice [14]: 18.2 mg/kg | ED80, Expt #1: dose of ABT-981 inhibiting mouse IL-6 induced by 30 ng cynomolgus IL-1α in C57/BL6 mice [14]: 16.1 mg/kg | ED80, Expt #2: dose of ABT-981 inhibiting mouse IL-6 induced by 30 ng cynomolgus IL-1α in C57/BL6 mice [14]: 20.2 mg/kg
Molecule: ABT-981 (bispecific antibody)

Neutralization potency IC50, MRC-5 cell bioassay: IL-8 release on 3 pM human IL-1β (human IL-1β [15]): 400 pM | Kd (human IL-1β [16]): 0.242 nM
B1: humanized SK48-E26 mAb (antibody, V domains shown)
VH: EVQLVESGGGVVQPGRSLRLSCSSSGFIFSSYDMSWVRQAPGKGLEWVAYISSGGGGTYYPDTVKGRFTISRDNSKNTLFLQMDSLRPEDTGVYFCARGGVTKGYFDVWGQGTPVTVSS
VL: DIQMTQSPSSLSASVGDRVTITCRASGNIHNYLTWYQQTPGKAPKLLIYNAKTLADGVPSRFSGSGSGTDYTFTISSLQPEDIATYYCQHFWSIPYTFGQGTKLQIT
